Data from patent US20190185537A1 (AstraZeneca / MedImmune, published 2019).
Numbered stars: 1 amine (or outer) side, 2 acyl side, 3 side chain; on linkers, the order of the positions; unused ones are H or OH. Side chains are listed from the residue outwards. Ends that are not written are not given here. * marks the point of attachment. γGlu = O=C(O)[C@H](CCC(=O)[*:2])N[*:1]; Palmitoyl = CCCCCCCCCCCCCCCC(=O)*

T1: human glucose-dependent insulinotropic peptide (gastric inhibitory polypeptide) receptor (human, UniProt P48546 22-466)
T1 sequence (looked up): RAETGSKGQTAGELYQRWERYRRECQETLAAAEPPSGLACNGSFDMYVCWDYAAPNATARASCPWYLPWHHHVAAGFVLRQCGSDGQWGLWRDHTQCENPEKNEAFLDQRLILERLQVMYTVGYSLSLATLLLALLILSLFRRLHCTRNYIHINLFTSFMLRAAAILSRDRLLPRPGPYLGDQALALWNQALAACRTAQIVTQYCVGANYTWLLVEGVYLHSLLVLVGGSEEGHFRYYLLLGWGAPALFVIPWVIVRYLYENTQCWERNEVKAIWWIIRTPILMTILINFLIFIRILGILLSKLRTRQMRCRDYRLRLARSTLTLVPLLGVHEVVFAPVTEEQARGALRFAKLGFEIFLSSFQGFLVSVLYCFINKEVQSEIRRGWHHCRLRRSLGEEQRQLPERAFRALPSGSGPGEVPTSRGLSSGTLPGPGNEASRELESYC


Columns and labels:
Assay in all cases: cell-based or functional assay
human glucagon receptor = human glucagon receptor (human, UniProt P47871 26-477)
Sequence of human glucagon receptor (P47871 26-477): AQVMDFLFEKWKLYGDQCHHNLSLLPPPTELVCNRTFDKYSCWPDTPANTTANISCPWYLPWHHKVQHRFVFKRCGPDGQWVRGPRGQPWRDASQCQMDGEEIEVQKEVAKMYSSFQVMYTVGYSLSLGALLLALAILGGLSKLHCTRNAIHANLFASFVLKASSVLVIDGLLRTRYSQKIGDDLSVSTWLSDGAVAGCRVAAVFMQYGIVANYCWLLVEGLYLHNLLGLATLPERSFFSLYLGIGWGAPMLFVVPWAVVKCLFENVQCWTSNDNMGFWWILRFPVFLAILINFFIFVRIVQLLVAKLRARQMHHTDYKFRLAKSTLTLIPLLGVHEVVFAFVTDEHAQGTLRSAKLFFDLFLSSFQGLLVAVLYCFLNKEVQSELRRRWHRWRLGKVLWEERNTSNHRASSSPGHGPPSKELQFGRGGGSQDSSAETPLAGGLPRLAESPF

human GLP-1 receptor = human GLP-1 receptor (human, UniProt P43220 24-463)
[1] = target: T1, human glucose-dependent insulinotropic …

| cAMP EC50 (assay 1) (human glucagon receptor) [nM] | cAMP EC50 (assay 1) (human GLP-1 receptor) [nM] | cAMP EC50 (assay 1) [1] [nM] | Binder |
| --- | --- | --- | --- |
| 0.0089 | 0.012 | 47 | HSQGTFTSDK([γGlu-Palmitoyl])SSYLDSRSARDFVAWLEAGG-OH (N-terminus assumed; SMILES CCCCCCCCCCCCCCCC(=O)N[C@@H](CCC(=O)NCCCC[C@H](NC(=O)[C@H](CC(=O)O)NC(=O)[C@H](CO)NC(=O)[C@@H](NC(=O)[C@H](Cc1ccccc1)NC(=O)[C@@H](NC(=O)CNC(=O)[C@H](CCC(N)=O)NC(=O)[C@H](CO)NC(=O)[C@@H](N)Cc1c[nH]cn1)[C@@H](C)O)[C@@H](C)O)C(=O)N[C@@H](CO)C(=O)N[C@@H](CO)C(=O)N[C@@H](Cc1ccc(O)cc1)C(=O)N[C@@H](CC(C)C)C(=O)N[C@@H](CC(=O)O)C(=O)N[C@@H](CO)C(=O)N[C@@H](CCCNC(=N)N)C(=O)N[C@@H](CO)C(=O)N[C@@H](C)C(=O)N[C@@H](CCCNC(=N)N)C(=O)N[C@@H](CC(=O)O)C(=O)N[C@@H](Cc1ccccc1)C(=O)N[C@H](C(=O)N[C@@H](C)C(=O)N[C@@H](Cc1c[nH]c2ccccc12)C(=O)N[C@@H](CC(C)C)C(=O)N[C@@H](CCC(=O)O)C(=O)N[C@@H](C)C(=O)NCC(=O)NCC(=O)O)C(C)C)C(=O)O) [G973] |
| 0.0063 | 0.018 | 3.6 | HSQGTFTSDK([γGlu-Palmitoyl])SKYLEGQAAKEFIAWLEKGR-OH (N-terminus assumed; SMILES CCCCCCCCCCCCCCCC(=O)N[C@@H](CCC(=O)NCCCC[C@H](NC(=O)[C@H](CC(=O)O)NC(=O)[C@H](CO)NC(=O)[C@@H](NC(=O)[C@H](Cc1ccccc1)NC(=O)[C@@H](NC(=O)CNC(=O)[C@H](CCC(N)=O)NC(=O)[C@H](CO)NC(=O)[C@@H](N)Cc1c[nH]cn1)[C@@H](C)O)[C@@H](C)O)C(=O)N[C@@H](CO)C(=O)N[C@@H](CCCCN)C(=O)N[C@@H](Cc1ccc(O)cc1)C(=O)N[C@@H](CC(C)C)C(=O)N[C@@H](CCC(=O)O)C(=O)NCC(=O)N[C@@H](CCC(N)=O)C(=O)N[C@@H](C)C(=O)N[C@@H](C)C(=O)N[C@@H](CCCCN)C(=O)N[C@@H](CCC(=O)O)C(=O)N[C@@H](Cc1ccccc1)C(=O)N[C@H](C(=O)N[C@@H](C)C(=O)N[C@@H](Cc1c[nH]c2ccccc12)C(=O)N[C@@H](CC(C)C)C(=O)N[C@@H](CCC(=O)O)C(=O)N[C@@H](CCCCN)C(=O)NCC(=O)N[C@@H](CCCNC(=N)N)C(=O)O)[C@@H](C)CC)C(=O)O) [G934] |
